Data on 1 molecule can be found in patent US20090280200A1, “HERBAL EXTRACTS WHICH INDUCE IMMUNE CELLS TO PRODUCE INTERFERON AND ACTIVATE TOLL-LIKE RECEPTORS” (INDUSTRIAL TECHNOLOGY RESEARCH INSTITUTE, priority 2008, published 2009).

For the experiment, the system named is immune cells. Description: Inducing activity for interferon-γ in immune cells. The class given is cell-based. As to conditions: IL-12 (positive control) with 40 ng/mL. The method, then:
The herbal extract (prepared by Example 1) was added in T lymphocytes and natural killer cells (NK92) separated from peripheral blood. After 24 hours, the upper-layered solution was collected and the quantity of interferon thereof was measured by ELISA. […] The dosage effect appears in both the T lymphocytes and natural killer cells (NK92). The quantity of interferon-α induced by PC-IL-12 (positive control) and the herbal extract was measured in the same manner. […] Additionally, the quantity of interferon-α produced by inducing T lymphocytes by the herbal extract with 250-1,000 μg/mL was obvious, as shown in FIGS. 2B and 2C.
The inducing activity for interferon-γ of the herbal extract (prepared by Example 3) was tested.

B1: IL-12: IL-12 (positive control) with 40 ng/mL (protein, UniProt P29459 23-219; P29460 23-328, looked up)
Interleukin-12 subunit alpha: RNLPVATPDPGMFPCLHHSQNLLRAVSNMLQKARQTLEFYPCTSEEIDHEDITKDKTSTVEACLPLELTKNESCLNSRETSFITNGSCLASRKTSFMMALCLSSIYEDLKMYQVEFKTMNAKLLMDPKRQIFLDQNMLAVIDELMQALNFNSETVPQKSSLEEPDFYKTKIKLCILLHAFRIRAVTIDRVMSYLNAS
Interleukin-12 subunit beta: IWELKKDVYVVELDWYPDAPGEMVVLTCDTPEEDGITWTLDQSSEVLGSGKTLTIQVKEFGDAGQYTCHKGGEVLSHSLLLLHKKEDGIWSTDILKDQKEPKNKTFLRCEAKNYSGRFTCWWLTTISTDLTFSVKSSRGSSDPQGVTCGAATLSAERVRGDNKEYEYSVECQEDSACPAAEESLPIEVMVDAVHKLKYENYTSSFFIRDIIKPDPPKNLQLKPLKNSRQVEVSWEYPDTWSTPHSYFSLTFCVQVQGKSKREKKDRVFTDKTSATVICRKNASISVRAQDRYYSSSWSEWASVPCS
Turning to B1, the interferon-γ produced was determined as 50 ± 2.04 pg/mL.
